# Measurements as given in patent US20250129163A1.
# pKd: −log10 of the molar value.
# Biological target: FcγRIIIa-bio (UniProt P08637)
# Assay: BLI (Fortebio), FcγRIIIa-bio immobilized on SA sensor, antibody 31.3-500 nM, 1:1 fit
# Chain of UniProt P08637 (P08637 17-208 limits assumed): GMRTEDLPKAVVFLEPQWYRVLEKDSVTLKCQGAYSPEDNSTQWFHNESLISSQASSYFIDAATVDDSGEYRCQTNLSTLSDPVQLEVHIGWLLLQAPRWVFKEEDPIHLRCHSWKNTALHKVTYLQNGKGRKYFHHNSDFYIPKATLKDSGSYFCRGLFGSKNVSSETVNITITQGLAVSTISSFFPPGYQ
substance,measurement,value
MEDI9447 (Oleclumab) (antibody),pKd,6.85
same,koff,0.0342 s⁻¹
same,kon,243000 M⁻¹ s⁻¹
